PMC4434323

Assays:
[1] = molecular target: T1, T07C12.11 (T07C12.11) (Caenorhabditis elegans) (UniProt G5EGG9)
T1 sequence: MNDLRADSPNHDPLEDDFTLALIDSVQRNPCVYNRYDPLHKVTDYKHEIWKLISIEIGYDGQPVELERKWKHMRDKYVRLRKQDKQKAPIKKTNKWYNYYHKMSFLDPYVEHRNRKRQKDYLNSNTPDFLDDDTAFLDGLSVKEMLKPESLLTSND

[2] = molecular target: T2, ceh-90 (R03E1.4) (Caenorhabditis elegans) (UniProt Q69YW8)
T2 sequence: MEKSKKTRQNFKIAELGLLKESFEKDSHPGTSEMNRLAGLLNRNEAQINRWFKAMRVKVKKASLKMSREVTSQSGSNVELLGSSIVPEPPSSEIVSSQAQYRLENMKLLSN

[3] = molecular target: T3, ceh-18 (ZC64.3) (Caenorhabditis elegans) (UniProt P41934)
T3 sequence: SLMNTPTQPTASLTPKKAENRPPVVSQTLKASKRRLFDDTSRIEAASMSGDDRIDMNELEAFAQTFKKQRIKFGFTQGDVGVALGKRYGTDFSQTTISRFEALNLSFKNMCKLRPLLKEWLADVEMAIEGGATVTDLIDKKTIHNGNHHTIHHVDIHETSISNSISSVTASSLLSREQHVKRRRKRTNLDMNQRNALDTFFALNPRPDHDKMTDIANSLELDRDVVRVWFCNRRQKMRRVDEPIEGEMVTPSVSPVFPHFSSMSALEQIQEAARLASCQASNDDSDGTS

[4] = molecular target: T4, eyg-1 (Y53C12C.1) (Caenorhabditis elegans) (UniProt O01996)
T4 sequence: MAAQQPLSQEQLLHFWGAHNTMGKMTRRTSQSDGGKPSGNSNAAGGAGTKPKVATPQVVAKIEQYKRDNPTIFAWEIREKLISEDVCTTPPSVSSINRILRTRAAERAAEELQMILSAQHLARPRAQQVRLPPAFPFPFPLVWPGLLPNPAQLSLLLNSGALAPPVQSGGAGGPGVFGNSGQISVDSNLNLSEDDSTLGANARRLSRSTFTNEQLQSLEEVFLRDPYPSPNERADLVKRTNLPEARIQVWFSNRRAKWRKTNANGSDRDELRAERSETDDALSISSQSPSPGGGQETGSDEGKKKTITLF

[5] = molecular target: T5, C07E3.6 (C07E3.6) (Caenorhabditis elegans) (UniProt Q17792)
T5 sequence: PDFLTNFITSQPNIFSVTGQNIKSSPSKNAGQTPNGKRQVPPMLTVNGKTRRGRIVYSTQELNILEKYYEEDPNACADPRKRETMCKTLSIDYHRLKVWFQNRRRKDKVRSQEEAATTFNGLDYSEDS

[6] = molecular target: T6, ceh-23 (ZK652.5) (Caenorhabditis elegans) (UniProt P34663)
T6 sequence: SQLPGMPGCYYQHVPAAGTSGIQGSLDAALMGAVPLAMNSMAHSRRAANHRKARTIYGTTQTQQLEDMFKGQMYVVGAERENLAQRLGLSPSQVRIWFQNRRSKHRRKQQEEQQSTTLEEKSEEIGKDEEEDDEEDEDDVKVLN

[7] = molecular target: T7, ceh-51 (Y80D3A.3) (Caenorhabditis elegans) (UniProt Q9U1R1)
T7 sequence: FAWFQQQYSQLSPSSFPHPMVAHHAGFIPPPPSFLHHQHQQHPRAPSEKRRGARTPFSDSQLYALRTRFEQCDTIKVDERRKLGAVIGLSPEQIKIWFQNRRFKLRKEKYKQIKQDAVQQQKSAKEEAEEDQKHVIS

[8] = molecular target: ceh-36 (C37E2.4) (Caenorhabditis elegans) (UniProt Q93352)
Sequence of ceh-36 (C37E2.4) (Caenorhabditis elegans) (Q93352 6-165): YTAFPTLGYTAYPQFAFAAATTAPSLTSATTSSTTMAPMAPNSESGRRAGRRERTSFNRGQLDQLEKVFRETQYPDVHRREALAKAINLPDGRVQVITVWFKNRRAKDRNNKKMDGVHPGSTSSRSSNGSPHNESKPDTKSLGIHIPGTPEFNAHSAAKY

[9] = molecular target: ceh-37 (C37E2.5) (Caenorhabditis elegans) (UniProt Q93356)
Sequence of ceh-37 (C37E2.5) (Caenorhabditis elegans) (Q93356 1-148): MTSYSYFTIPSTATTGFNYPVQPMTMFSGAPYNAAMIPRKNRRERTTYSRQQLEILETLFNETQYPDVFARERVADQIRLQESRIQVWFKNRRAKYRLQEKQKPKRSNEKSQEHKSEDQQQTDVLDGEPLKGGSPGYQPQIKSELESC

[10] = system: ceh-53 (C09G12.1) (Caenorhabditis elegans)
Sequence of ceh-53 (C09G12.1) (Caenorhabditis elegans) (chain, as listed by the source): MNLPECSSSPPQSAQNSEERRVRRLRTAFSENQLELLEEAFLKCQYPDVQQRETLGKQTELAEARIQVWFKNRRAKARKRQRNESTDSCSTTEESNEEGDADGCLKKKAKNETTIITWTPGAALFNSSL

AACGTAAG (double strand) [8-mer AACGTAAG]
binding signal (PBM E-score (-0.5 to 0.5)) [1]: 0.486

AAGTTTTA (double strand) [8-mer AAGTTTTA]
binding signal (PBM E-score (-0.5 to 0.5)) [2]: 0.492

AATATGCA (double strand) [8-mer AATATGCA]
binding signal (PBM E-score (-0.5 to 0.5)) [3]: 0.482

AATATTCA (double strand) [8-mer AATATTCA]
binding signal (PBM E-score (-0.5 to 0.5)) [3]: 0.477

AATTATGC (double strand) [8-mer AATTATGC]
binding signal (PBM E-score (-0.5 to 0.5)) [3]: 0.484

ACTAAAAC (double strand) [8-mer ACTAAAAC]
binding signal (PBM E-score (-0.5 to 0.5)) [2]: 0.487

ACTAATTA (double strand) [8-mer ACTAATTA]
binding signal (PBM E-score (-0.5 to 0.5)) [4]: 0.477
binding signal (PBM E-score (-0.5 to 0.5)) [5]: 0.498
binding signal (PBM E-score (-0.5 to 0.5)) [6]: 0.495

AGGTTTTA (double strand) [8-mer AGGTTTTA]
binding signal (PBM E-score (-0.5 to 0.5)) [2]: 0.496

AGTTTTAA (double strand) [8-mer AGTTTTAA]
binding signal (PBM E-score (-0.5 to 0.5)) [2]: 0.492

AGTTTTAG (double strand) [8-mer AGTTTTAG]
binding signal (PBM E-score (-0.5 to 0.5)) [2]: 0.486

ATAAAACC (double strand) [8-mer ATAAAACC]
binding signal (PBM E-score (-0.5 to 0.5)) [2]: 0.495

ATAATTAA (double strand) [8-mer ATAATTAA]
binding signal (PBM E-score (-0.5 to 0.5)) [6]: 0.493

ATATAATA (double strand) [8-mer ATATAATA]
binding signal (PBM E-score (-0.5 to 0.5)) [7]: 0.472

ATATGCAC (double strand) [8-mer ATATGCAC]
binding signal (PBM E-score (-0.5 to 0.5)) [3]: 0.477

ATATGCAT (double strand) [8-mer ATATGCAT]
binding signal (PBM E-score (-0.5 to 0.5)) [3]: 0.486

ATCAATTA (double strand) [8-mer ATCAATTA]
binding signal (PBM E-score (-0.5 to 0.5)) [4]: 0.475

ATGAATAA (double strand) [8-mer ATGAATAA]
binding signal (PBM E-score (-0.5 to 0.5)) [3]: 0.477

ATGCATAA (double strand) [8-mer ATGCATAA]
binding signal (PBM E-score (-0.5 to 0.5)) [3]: 0.495

ATGCGCAT (double strand) [8-mer ATGCGCAT]
binding signal (PBM E-score (-0.5 to 0.5)) [4]: 0.475

ATTAAAAC (double strand) [8-mer ATTAAAAC]
binding signal (PBM E-score (-0.5 to 0.5)) [2]: 0.487

ATTAAGTG (double strand) [8-mer ATTAAGTG]
binding signal (PBM E-score (-0.5 to 0.5)) [7]: 0.472

ATTAATAA (double strand) [8-mer ATTAATAA]
binding signal (PBM E-score (-0.5 to 0.5)) [7]: 0.474

ATTAATAG (double strand) [8-mer ATTAATAG]
binding signal (PBM E-score (-0.5 to 0.5)) [7]: 0.478

ATTAATGA (double strand) [8-mer ATTAATGA]
binding signal (PBM E-score (-0.5 to 0.5)) [7]: 0.469

ATTAATTA (double strand) [8-mer ATTAATTA]
binding signal (PBM E-score (-0.5 to 0.5)) [5]: 0.495
binding signal (PBM E-score (-0.5 to 0.5)) [6]: 0.495
binding signal (PBM E-score (-0.5 to 0.5)) [7]: 0.474

ATTAATTG (double strand) [8-mer ATTAATTG]
binding signal (PBM E-score (-0.5 to 0.5)) [4]: 0.478
binding signal (PBM E-score (-0.5 to 0.5)) [7]: 0.472

ATTATGCA (double strand) [8-mer ATTATGCA]
binding signal (PBM E-score (-0.5 to 0.5)) [3]: 0.496

CAATTAAC (double strand) [8-mer CAATTAAC]
binding signal (PBM E-score (-0.5 to 0.5)) [4]: 0.476
binding signal (PBM E-score (-0.5 to 0.5)) [5]: 0.495

CATAATTA (double strand) [8-mer CATAATTA]
binding signal (PBM E-score (-0.5 to 0.5)) [5]: 0.495
binding signal (PBM E-score (-0.5 to 0.5)) [6]: 0.493
binding signal (PBM E-score (-0.5 to 0.5)) [3]: 0.483

CATATGCA (double strand) [8-mer CATATGCA]
binding signal (PBM E-score (-0.5 to 0.5)) [3]: 0.478

CCAATTAA (double strand) [8-mer CCAATTAA]
binding signal (PBM E-score (-0.5 to 0.5)) [4]: 0.479

CCTAATTA (double strand) [8-mer CCTAATTA]
binding signal (PBM E-score (-0.5 to 0.5)) [5]: 0.496
binding signal (PBM E-score (-0.5 to 0.5)) [6]: 0.495

CTAAAACC (double strand) [8-mer CTAAAACC]
binding signal (PBM E-score (-0.5 to 0.5)) [2]: 0.493

CTAATTAA (double strand) [8-mer CTAATTAA]
binding signal (PBM E-score (-0.5 to 0.5)) [4]: 0.489
binding signal (PBM E-score (-0.5 to 0.5)) [5]: 0.498
binding signal (PBM E-score (-0.5 to 0.5)) [6]: 0.498

CTAATTAG (double strand) [8-mer CTAATTAG]
binding signal (PBM E-score (-0.5 to 0.5)) [4]: 0.473
binding signal (PBM E-score (-0.5 to 0.5)) [5]: 0.497
binding signal (PBM E-score (-0.5 to 0.5)) [6]: 0.495

CTTAAAAC (double strand) [8-mer CTTAAAAC]
binding signal (PBM E-score (-0.5 to 0.5)) [2]: 0.494

CTTAATTA (double strand) [8-mer CTTAATTA]
binding signal (PBM E-score (-0.5 to 0.5)) [4]: 0.482
binding signal (PBM E-score (-0.5 to 0.5)) [5]: 0.497
binding signal (PBM E-score (-0.5 to 0.5)) [6]: 0.494

GAATATTC (double strand) [8-mer GAATATTC]
binding signal (PBM E-score (-0.5 to 0.5)) [3]: 0.494

GATAATTA (double strand) [8-mer GATAATTA]
binding signal (PBM E-score (-0.5 to 0.5)) [4]: 0.48
binding signal (PBM E-score (-0.5 to 0.5)) [5]: 0.497
binding signal (PBM E-score (-0.5 to 0.5)) [6]: 0.492

GCAATTAA (double strand) [8-mer GCAATTAA]
binding signal (PBM E-score (-0.5 to 0.5)) [7]: 0.473

GCACTTAA (double strand) [8-mer GCACTTAA]
binding signal (PBM E-score (-0.5 to 0.5)) [7]: 0.469

GCTATTAA (double strand) [8-mer GCTATTAA]
binding signal (PBM E-score (-0.5 to 0.5)) [7]: 0.467

GGATTAAC (double strand) [8-mer GGATTAAC]
binding signal (PBM E-score (-0.5 to 0.5)) [8]: 0.49
binding signal (PBM E-score (-0.5 to 0.5)) [9]: 0.492
binding signal (PBM E-score (-0.5 to 0.5)) [10]: 0.495

GGGATTAA (double strand) [8-mer GGGATTAA]
binding signal (PBM E-score (-0.5 to 0.5)) [8]: 0.494
binding signal (PBM E-score (-0.5 to 0.5)) [9]: 0.493
binding signal (PBM E-score (-0.5 to 0.5)) [10]: 0.496

GGGGATTA (double strand) [8-mer GGGGATTA]
binding signal (PBM E-score (-0.5 to 0.5)) [8]: 0.495
binding signal (PBM E-score (-0.5 to 0.5)) [9]: 0.494
binding signal (PBM E-score (-0.5 to 0.5)) [10]: 0.497

GGGTTTAA (double strand) [8-mer GGGTTTAA]
binding signal (PBM E-score (-0.5 to 0.5)) [2]: 0.487

GGGTTTTA (double strand) [8-mer GGGTTTTA]
binding signal (PBM E-score (-0.5 to 0.5)) [2]: 0.498

GGTAATTA (double strand) [8-mer GGTAATTA]
binding signal (PBM E-score (-0.5 to 0.5)) [5]: 0.497
binding signal (PBM E-score (-0.5 to 0.5)) [6]: 0.494

GGTTTTAA (double strand) [8-mer GGTTTTAA]
binding signal (PBM E-score (-0.5 to 0.5)) [2]: 0.498

GGTTTTTA (double strand) [8-mer GGTTTTTA]
binding signal (PBM E-score (-0.5 to 0.5)) [2]: 0.485

GTAATTAA (double strand) [8-mer GTAATTAA]
binding signal (PBM E-score (-0.5 to 0.5)) [5]: 0.497
binding signal (PBM E-score (-0.5 to 0.5)) [6]: 0.492

GTAATTAC (double strand) [8-mer GTAATTAC]
binding signal (PBM E-score (-0.5 to 0.5)) [4]: 0.482
binding signal (PBM E-score (-0.5 to 0.5)) [7]: 0.478

GTTAAAAC (double strand) [8-mer GTTAAAAC]
binding signal (PBM E-score (-0.5 to 0.5)) [2]: 0.492

GTTAATTA (double strand) [8-mer GTTAATTA]
binding signal (PBM E-score (-0.5 to 0.5)) [4]: 0.481
binding signal (PBM E-score (-0.5 to 0.5)) [5]: 0.498
binding signal (PBM E-score (-0.5 to 0.5)) [6]: 0.497

TAAAACCA (double strand) [8-mer TAAAACCA]
binding signal (PBM E-score (-0.5 to 0.5)) [2]: 0.488

TAATTAAA (double strand) [8-mer TAATTAAA]
binding signal (PBM E-score (-0.5 to 0.5)) [6]: 0.493

TAATTACA (double strand) [8-mer TAATTACA]
binding signal (PBM E-score (-0.5 to 0.5)) [7]: 0.467

TATGCAAA (double strand) [8-mer TATGCAAA]
binding signal (PBM E-score (-0.5 to 0.5)) [3]: 0.486

TATGCATA (double strand) [8-mer TATGCATA]
binding signal (PBM E-score (-0.5 to 0.5)) [3]: 0.497

TATTAATA (double strand) [8-mer TATTAATA]
binding signal (PBM E-score (-0.5 to 0.5)) [7]: 0.483

TCAATTAA (double strand) [8-mer TCAATTAA]
binding signal (PBM E-score (-0.5 to 0.5)) [4]: 0.48
binding signal (PBM E-score (-0.5 to 0.5)) [7]: 0.467

TGCATAAA (double strand) [8-mer TGCATAAA]
binding signal (PBM E-score (-0.5 to 0.5)) [3]: 0.476

TTAATTAA (double strand) [8-mer TTAATTAA]
binding signal (PBM E-score (-0.5 to 0.5)) [4]: 0.487
binding signal (PBM E-score (-0.5 to 0.5)) [5]: 0.496
binding signal (PBM E-score (-0.5 to 0.5)) [6]: 0.497

TTATGCAA (double strand) [8-mer TTATGCAA]
binding signal (PBM E-score (-0.5 to 0.5)) [3]: 0.476
